Laboratory results reported in patent US20260116925A1 (ARIZONA BOARD OF REGENTS ON BEHALF OF ARIZONA STATE …, published 2026).

Target: T1, Cathepsin G
T1 sequence (P08311 21-244, species assumed, looked up): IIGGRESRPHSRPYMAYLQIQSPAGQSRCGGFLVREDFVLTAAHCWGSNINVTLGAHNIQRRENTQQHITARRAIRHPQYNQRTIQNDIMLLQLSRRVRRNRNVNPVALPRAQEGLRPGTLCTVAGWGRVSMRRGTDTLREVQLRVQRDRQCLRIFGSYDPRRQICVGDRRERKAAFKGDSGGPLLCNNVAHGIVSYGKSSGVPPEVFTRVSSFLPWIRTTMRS
Experiment: cell-based or functional assay

- inhibitory stoichiometry (A/A0 (405 nm) vs. time): 1 inhibitor:enzyme ratio
B1: recombinant Serpinb3a (mouse-derived), 6×His-tagged, produced in E. coli (other)
chain: HHHHHHMHLFAEATTKFTLELYRQLRESDNNIFYSPISMMTALAMLQLGAKGNTEKQIEKVLQFNETTKKTTEKSAHCHDEENVHEQFQKLMTQLNKSNDAYDLKAANSIYGAKGFPFVQTFLEDIKEYYQANVESLDFEHAAEESEKKINSWVESQTNGKIKDLFPNGSLNRSTIMVLVNAVYFKGQWNHKFDEKHTTEEKFWLNKNTSKPVQMMKQNIEFNFMFLEDVQAKIVEIPYKGKELSMIVLLPVEINGLKQLEEQLTADKLLEWTRAENMHMTELYLSLPRFKVDEKYDLPIPLEHMGMVDAFDPQKADFSGMSSTQGLVVSKVLHKSFVEVNEEGTEAAAATGVEVSLTSAQIAEDFCCDHPFLFFIIHRKTNSILFFGRISSP
